Measured values reported in patent US20210388087A1 (Chugai, published 2021).

Target: T1, Human CD137 ECD (human)
T1 construct: entry includes C-terminal His-tag and biotin acceptor peptide; also called human CD137 extracellular domain; 4-1BB
Experiment: Biacore SPR, vs parent H183/L072

T1 sequence (chain, as listed by the source limits assumed): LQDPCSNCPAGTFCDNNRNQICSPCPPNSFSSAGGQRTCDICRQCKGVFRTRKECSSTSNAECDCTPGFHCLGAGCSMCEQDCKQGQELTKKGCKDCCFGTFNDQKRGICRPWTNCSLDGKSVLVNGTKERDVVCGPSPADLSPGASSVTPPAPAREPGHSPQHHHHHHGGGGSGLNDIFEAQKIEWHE

| fold change of affinity [fold] | Binder |
| --- | --- |
| 0.6 | H183/L072 VL H27dS (antibody, name in Kabat numbering, V domains shown, Dual-Ig) VH: QVQLVESGGGLVQPGRSLRLSCAASGFTFSNAWMHWVRQAPGKGLEWVAQIKDKGNAYAAYYAPSVKGRFTISRDDSKNSIYLQMNSLKTEDTAVYYCHYVHYASASTVLPAFGVDAWGQGTTVTVSS VL: DIVMTQSPLSLPVTPGEPASISCQASQELVSMNRNTYLHWYQQKPGQAPRLLIYKVSNRFPGVPDRFSGSGSGTDFTLKISRVEAEDVGVYYCAQGTSVPFTFGQGTKLEIK |
| 0.1 | H183/L072 VL H34L (antibody, name in Kabat numbering, V domains shown, Dual-Ig) VH: QVQLVESGGGLVQPGRSLRLSCAASGFTFSNAWMHWVRQAPGKGLEWVAQIKDKGNAYAAYYAPSVKGRFTISRDDSKNSIYLQMNSLKTEDTAVYYCHYVHYASASTVLPAFGVDAWGQGTTVTVSS VL: DIVMTQSPLSLPVTPGEPASISCQASQELVHMNRNTYLLWYQQKPGQAPRLLIYKVSNRFPGVPDRFSGSGSGTDFTLKISRVEAEDVGVYYCAQGTSVPFTFGQGTKLEIK |
| 0.6 | H183/L072 VL H27dT (antibody, name in Kabat numbering, V domains shown, Dual-Ig) VH: QVQLVESGGGLVQPGRSLRLSCAASGFTFSNAWMHWVRQAPGKGLEWVAQIKDKGNAYAAYYAPSVKGRFTISRDDSKNSIYLQMNSLKTEDTAVYYCHYVHYASASTVLPAFGVDAWGQGTTVTVSS VL: DIVMTQSPLSLPVTPGEPASISCQASQELVTMNRNTYLHWYQQKPGQAPRLLIYKVSNRFPGVPDRFSGSGSGTDFTLKISRVEAEDVGVYYCAQGTSVPFTFGQGTKLEIK |
| 0 | H183/L072 VL H34I (antibody, name in Kabat numbering, V domains shown, Dual-Ig) VH: QVQLVESGGGLVQPGRSLRLSCAASGFTFSNAWMHWVRQAPGKGLEWVAQIKDKGNAYAAYYAPSVKGRFTISRDDSKNSIYLQMNSLKTEDTAVYYCHYVHYASASTVLPAFGVDAWGQGTTVTVSS VL: DIVMTQSPLSLPVTPGEPASISCQASQELVHMNRNTYLIWYQQKPGQAPRLLIYKVSNRFPGVPDRFSGSGSGTDFTLKISRVEAEDVGVYYCAQGTSVPFTFGQGTKLEIK |
| 0.5 | H183/L072 VL H27dY (antibody, name in Kabat numbering, V domains shown, Dual-Ig) VH: QVQLVESGGGLVQPGRSLRLSCAASGFTFSNAWMHWVRQAPGKGLEWVAQIKDKGNAYAAYYAPSVKGRFTISRDDSKNSIYLQMNSLKTEDTAVYYCHYVHYASASTVLPAFGVDAWGQGTTVTVSS VL: DIVMTQSPLSLPVTPGEPASISCQASQELVYMNRNTYLHWYQQKPGQAPRLLIYKVSNRFPGVPDRFSGSGSGTDFTLKISRVEAEDVGVYYCAQGTSVPFTFGQGTKLEIK |
| 0.7 | H183/L072 VL H27dV (antibody, name in Kabat numbering, V domains shown, Dual-Ig) VH: QVQLVESGGGLVQPGRSLRLSCAASGFTFSNAWMHWVRQAPGKGLEWVAQIKDKGNAYAAYYAPSVKGRFTISRDDSKNSIYLQMNSLKTEDTAVYYCHYVHYASASTVLPAFGVDAWGQGTTVTVSS VL: DIVMTQSPLSLPVTPGEPASISCQASQELVVMNRNTYLHWYQQKPGQAPRLLIYKVSNRFPGVPDRFSGSGSGTDFTLKISRVEAEDVGVYYCAQGTSVPFTFGQGTKLEIK |
| 0.5 | H183/L072 VL H27dW (antibody, name in Kabat numbering, V domains shown, Dual-Ig) VH: QVQLVESGGGLVQPGRSLRLSCAASGFTFSNAWMHWVRQAPGKGLEWVAQIKDKGNAYAAYYAPSVKGRFTISRDDSKNSIYLQMNSLKTEDTAVYYCHYVHYASASTVLPAFGVDAWGQGTTVTVSS VL: DIVMTQSPLSLPVTPGEPASISCQASQELVWMNRNTYLHWYQQKPGQAPRLLIYKVSNRFPGVPDRFSGSGSGTDFTLKISRVEAEDVGVYYCAQGTSVPFTFGQGTKLEIK |
| 0 | H183/L072 VL H34M (antibody, name in Kabat numbering, V domains shown, Dual-Ig) VH: QVQLVESGGGLVQPGRSLRLSCAASGFTFSNAWMHWVRQAPGKGLEWVAQIKDKGNAYAAYYAPSVKGRFTISRDDSKNSIYLQMNSLKTEDTAVYYCHYVHYASASTVLPAFGVDAWGQGTTVTVSS VL: DIVMTQSPLSLPVTPGEPASISCQASQELVHMNRNTYLMWYQQKPGQAPRLLIYKVSNRFPGVPDRFSGSGSGTDFTLKISRVEAEDVGVYYCAQGTSVPFTFGQGTKLEIK |
